Experimental data: paper PMC3064491 (Nature, 2011)

Target: T1, human OGT construct (hOGT4.5) containing 4.5 TPR units and the catalytic domain (human, UniProt O15294-3 313-1031)
T1 sequence (looked up): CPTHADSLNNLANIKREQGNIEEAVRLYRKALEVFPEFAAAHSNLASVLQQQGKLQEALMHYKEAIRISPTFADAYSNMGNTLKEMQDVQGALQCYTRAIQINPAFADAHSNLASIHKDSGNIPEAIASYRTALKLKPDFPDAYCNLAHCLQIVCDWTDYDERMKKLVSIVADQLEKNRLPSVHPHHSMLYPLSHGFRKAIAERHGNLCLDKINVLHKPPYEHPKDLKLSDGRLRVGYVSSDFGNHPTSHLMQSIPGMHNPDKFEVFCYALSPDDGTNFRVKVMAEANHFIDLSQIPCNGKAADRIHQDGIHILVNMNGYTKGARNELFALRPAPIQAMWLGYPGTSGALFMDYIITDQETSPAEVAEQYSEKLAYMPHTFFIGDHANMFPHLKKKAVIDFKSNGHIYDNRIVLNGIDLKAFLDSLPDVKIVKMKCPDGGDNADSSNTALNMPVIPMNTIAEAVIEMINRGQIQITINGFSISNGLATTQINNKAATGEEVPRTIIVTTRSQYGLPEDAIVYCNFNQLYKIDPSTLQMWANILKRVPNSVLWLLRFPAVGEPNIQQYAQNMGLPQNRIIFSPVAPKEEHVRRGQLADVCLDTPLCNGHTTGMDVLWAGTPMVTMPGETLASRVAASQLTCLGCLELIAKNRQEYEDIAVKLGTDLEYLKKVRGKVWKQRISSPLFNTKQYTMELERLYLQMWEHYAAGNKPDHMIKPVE
Assay: crystal structure

binding result: binds
B1: 14 residue-CKII peptide substrate (peptide)
peptide: YPGGSTPVSSANMM
